Laboratory results reported in the nanobody polyreactivity screen of Harvey et al. (2022).

Assay: yeast display, Sf9 membrane polyspecificity reagent, FACS + sequencing; frameworks hold sequencing errors
Procedure, shortened: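 Synthetic nanobody libraries on Saccharomyces cerevisiae BJ5465 were galactose-induced for 36–48 hours, stained 1 hour at 4 °C with 10% biotinylated, detergent-solubilized Sf9 membrane reagent and enriched on streptavidin microbeads. FACS then separated cells into low and high (top ~1%) gates by anti-HA (expression) and streptavidin (reagent binding) fluorescence. Genes were colony-PCR amplified, MiSeq 2 × 250 sequenced and CDR-length filtered. A clone's polyreactivity label is that of its gate of origin.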

| Sequence | polyreactivity (PSR sort gate) |
| --- | --- |
| QVQLLESGGGLVQAGGSLRLTSPASVRISQIYAMGWYIQAPGTERVLVARITSTDSTYYADSVKGRFTISRDNAKNTVYLQMNSLKPEDTAVYYCAASWWSPYDYWGQGTQVTVSS | low polyreactivity |
| QVQLVESGGGLVQAGGSLRLSCAASGYIFPWYDMGWYRQAPGKERELVAAISWSGGSTYSADSVKGRFTISRDNAKNTVDLQMNSLKPEDTAVYYCAAYLSHYATRYGYWGHGTQVTVSS | high polyreactivity |
| QVQLVESGGGLVQAGGSLRLSCAASGRIFSANAMGWYRQAPRKERELVAGIDSGGSTNYADSVKGRFTISRDNSKNTVYLQMNSLKPEDTAVYYCNAEDHKYEYDSWGQGTQVTVSS | low polyreactivity |
| QVQLVESGGGLVQAGGSLRLSCAASGFIFTSYAMGWYRQAPGKERELVAAITRSGGRTYYADSVKGRFTISRDNAKNTVYLQMNSLKPEDTAVYYCAAVTFYQSPARGYWGQGTQVTVSS | high polyreactivity |
| QVQLVESGGGLVQAGGSLRLSCAASGSIFFEYAMGWYRQAAGKERELVAAIDVGGGGTDYADSVKGRFTISRDNAKNTVYLQMNSLKPEDTAVYYCAAQDYYYFGIGASYDYWGQGTQVTVSS | low polyreactivity |
| QVQLVESGGGLVQAGGRLLLSCAASGSTFTRNAMGWYRPAPGKERELVAAISSSGSRTYYADSVKGRFTISRDNAKNTVYLQMNSLIPADTAVYYCNKTKHSYLYTDDDYWGQGTQVTVSS | high polyreactivity |
| QVQLVESGGGLVQAGGSLRLSCDASGRIFHGNAMGWYRQAPGKEREFVAAITYGGGSTYYADSVKGRFTISRDNAKNTVYLQMNSLKPEDTAVYYCNARGARSNGVRGYYSKLNYWGQGTQVTVSS | high polyreactivity |
| QVQVVESGGGLVQAGGSLRLSCAASGSIFVGYAMGWYRQAPGKEREFVAGITARGGSTYYADSVKGRFTISCDNAKNTVYIPMNSQKPEDSAVYYCAADDGSENDYWGQGTQVTVSS | low polyreactivity |
| QVQLVESGGGLVQAGGSLRLSCAASGRIFGVNAMGWYRQAPGKERELVAAIRYSGGSTYYADSVKGRFTISRDNAKNTVYLQMNSLKPEDTAVYYCAKARYTYSWSFGYWGQGTQVTVSS | low polyreactivity |
| QVQLVESGGGLVQAGGSLRLSCAASGFNFPRYTMGWSRKAPGKEREFVAGITLRGGSTYYADSVKGRFTISRANAKNTVYLQMNSLKPDETAVYYCARVISRGRSFGIGYDYWGQATQVTVSS | low polyreactivity |
| QVQLVESGGGLVQAGGSLRLSCAASGFTFNPNAMGWYRQAPGKERELVAPITRSGGSTYYADSVKGRFTISRDNAKNTVYLQMNSLKPEDTAVYYCNAPFRVSTTRRRYPGIDSHYYWGQGTQVTVSS | high polyreactivity |
| QVQLVESGGGLVQAGGSLRLSCAASGFTFFSYAMGWYRQAPGKERELVAAISWSGGTTYYADSVKGRFTISRDNAKNTDYLQMNSLKPEDTAVYYCAAGPFSYSHYGRKFYYWGQGTQVTVSS | high polyreactivity |
| QVQLVESGGGLVHAGGSLRLSCAASVSTFLFYAMGWYRQAPGKEREFVAAITWSGGSTYYADSVKGRFTISRDNAKNTVYLQMNSLKPEDTAVYYCNGYYVPTTGREFYFAFYYWGQGTQVTVSS | low polyreactivity |
| QVQLVESGGRLVQAGGSLRLSCAASGITFYLYAMGWYRQAPGKERELVAAISSSGGSTYYADSVKGRFTISRDNEKNTVYLQMNSLKPEDTAVYYCAAVFYTSVTIYDYWGQGTQVTVSS | high polyreactivity |
| QVQLVESGGCLVQAGGSLRLSCAASGRIFYIYAMGWYRQAPGKERELVAAITNGGSTNYADSVKGRFTISRDNAKNTVYLQMNSLKPEDTAVYYCAASVGTYAYGRTVYRYDYWGQGTQVTVSS | low polyreactivity |
| QVQRVESGGGLVQAGGSLRLSCAASGRIFPTNAMGWYRQAPGKERELVAAIPVSGGSTYYADSVKGRFTISRDNAKNTVYLQMNSLKPEDTAVYYCAADSSTYRFDYWGQGTQVTVSS | low polyreactivity |

| Sequence | polyreactivity (PSR sort gate) |
| --- | --- |
| QVQLVESGGGLVKAGGSLRLSCAASGFTYSTYAMGWYRQAPGKEREFVAAISRSGGSTYYADSVKGRFTISRDNAKNTVYLQMNSLKPEDTAVYYCAVRPYRSAGGSVTRGAYYYWGQGTQVTVSS | high polyreactivity |
| QVQLVESGGGLVQAGGSLRLSCAASGITFDGYAMGWYRQAPGKERELVAAISNTGDTTYYADSVKGRFTISRDNAKNTVYLQMNSLKPEDTAVYYCAGQRYYSYEYWGQGTQVTVSS | high polyreactivity |
| QVQLVESWGGLVQAGGSLRISCAASGRTFGSYVMGWYRQAPGKERELVAAISSRGTRTYYADSVKGRFTISRDNAKNTVYLQMNSLKPEDTAVYYCNAKYGQYPPRYEYWGQGTQVTVSS | high polyreactivity |
| QVQLVESGGGLVQAGGSHGLSCAASGSTFYYNAMGWYRPAPGKERELVARISRSGGSTYADSVKGRFTISRDNAKNTVYLLMNSLKPEDTAVYYCNADAYGTPEFTSYAVRYDHWGQGTQETVSS | low polyreactivity |
| QVQLVESGGGLVQAGGSLRLSCAASGSIFWFYGMGWYRQAPGKERELVAAISWSGGNTYADSVKGRFTISRDNAKNTVYVQMNSLKPEDTAVYYCNAVVRAYYTSIWVPRYDYWGQGTQVTVSS | high polyreactivity |
| QVQLVESGGGLVQAGGSLRLSCAASGSTISPNAMGWYRQAPGKERELVPAITWSGGSNTYADSVKGRFTISRDNAKNTVYLQMNSLKPEDTAVYYCATVGYLYTPVVVTWWDWGDYWGQGTQVTVSS | low polyreactivity |
| QVQLVESGGGLVQAGGSLRLSCAASGRIFVANAMGWYRQAPGKERELVAAISGRGSRTYYADSVKGRFTISRDNAKNTVYLQMNSLKPEDTAVYYCAARYRYDGRYDYWGQGTQVTVSS | high polyreactivity |
| QVQLVESGGGLVQAGGSLRLSCAASGSIFYENNMGWYRQAPGKEREFVAAISRSGGSTYYADSVKRRFTISRDNAKNTVYLQLNSLKPEDTAVYYCAARSRPGYAVYYWGQGTQVTVSS | high polyreactivity |
| QVLLQESGGGLVQAGGSLRLSCASSGTISTDIRMGWYRLAPGKEREFVASIDGCSTTYYADSVKGRFSISRDNAKNTVYLQMNSLKPEDTSMYYCAAREATEFYLYYWGQGTQVTVSS | low polyreactivity |
| QVQLVESGGGLVQAGGSLRLSCAASGRTFNINALGWYRQAPGKERELVAAITWTGGGNTYYADSVKGRFTISRDNAKNTVYLQMNSLKPEDTAVYYCNADGRNYFYEGFWEGNYWGQGTQVTVSS | low polyreactivity |
| QVQLVESGGGLVQAGGSLRLTCAASGSIFYRNAMGLYRQAPGKEMELVADISWSGSSTYADSVKGLFTISRDNAKYTVYLHMNTLKPEDTAVYYCAAGGHYYSSPGYNYWGQGTQVTVSS | high polyreactivity |
| QVQLVESGGGLVQAGGSLRLSCSASGYTFPLYAMGWYRQAPGKERELVADINIGGASTYYADSVKGRFTISRDNAKNTVYLQMNSLKPEDTAVYYCAIQYYDGYFPTFEYDYWGQGTQVTVSS | low polyreactivity |
| QFQLVESGGGLVQAGGSLRLSCAASGRIFRRYTMGWYRQAPGKERELVATITWDGVSTYYADSVKGRFTISRDNAKNTVYLQMNSLKPEDTAVYYCNVDVYYYVLSYQYDYWGQGTQVTVSS | high polyreactivity |
| QVQLVESGGGLVQAGGSLRLSWAASGSTFEYNVMGWYRQAPGKERELVAAITQGDGGSTYYADSVKGRFTISRDNAKKTVYLQKNSLIPEDTAVYYCNAGYFTEYNSWGQGTEVTVSS | high polyreactivity |
| QVQLVESAGGLVQAGGSLSISCAASGLTLTRNAMGWYRQAPGKERELVAAISGRGGSTYYADSVKGRFTISRDNAKNTVYLQMNSLKPEDTAVYYCAATVQYSPIYDYWGQGTQVTVSS | high polyreactivity |
